The target of the experiment is T1, human OB-Rb (Homo sapiens, UniProt P48357).
T1 construct: expressed in transfected cells
T1 sequence (P48357 22-1165): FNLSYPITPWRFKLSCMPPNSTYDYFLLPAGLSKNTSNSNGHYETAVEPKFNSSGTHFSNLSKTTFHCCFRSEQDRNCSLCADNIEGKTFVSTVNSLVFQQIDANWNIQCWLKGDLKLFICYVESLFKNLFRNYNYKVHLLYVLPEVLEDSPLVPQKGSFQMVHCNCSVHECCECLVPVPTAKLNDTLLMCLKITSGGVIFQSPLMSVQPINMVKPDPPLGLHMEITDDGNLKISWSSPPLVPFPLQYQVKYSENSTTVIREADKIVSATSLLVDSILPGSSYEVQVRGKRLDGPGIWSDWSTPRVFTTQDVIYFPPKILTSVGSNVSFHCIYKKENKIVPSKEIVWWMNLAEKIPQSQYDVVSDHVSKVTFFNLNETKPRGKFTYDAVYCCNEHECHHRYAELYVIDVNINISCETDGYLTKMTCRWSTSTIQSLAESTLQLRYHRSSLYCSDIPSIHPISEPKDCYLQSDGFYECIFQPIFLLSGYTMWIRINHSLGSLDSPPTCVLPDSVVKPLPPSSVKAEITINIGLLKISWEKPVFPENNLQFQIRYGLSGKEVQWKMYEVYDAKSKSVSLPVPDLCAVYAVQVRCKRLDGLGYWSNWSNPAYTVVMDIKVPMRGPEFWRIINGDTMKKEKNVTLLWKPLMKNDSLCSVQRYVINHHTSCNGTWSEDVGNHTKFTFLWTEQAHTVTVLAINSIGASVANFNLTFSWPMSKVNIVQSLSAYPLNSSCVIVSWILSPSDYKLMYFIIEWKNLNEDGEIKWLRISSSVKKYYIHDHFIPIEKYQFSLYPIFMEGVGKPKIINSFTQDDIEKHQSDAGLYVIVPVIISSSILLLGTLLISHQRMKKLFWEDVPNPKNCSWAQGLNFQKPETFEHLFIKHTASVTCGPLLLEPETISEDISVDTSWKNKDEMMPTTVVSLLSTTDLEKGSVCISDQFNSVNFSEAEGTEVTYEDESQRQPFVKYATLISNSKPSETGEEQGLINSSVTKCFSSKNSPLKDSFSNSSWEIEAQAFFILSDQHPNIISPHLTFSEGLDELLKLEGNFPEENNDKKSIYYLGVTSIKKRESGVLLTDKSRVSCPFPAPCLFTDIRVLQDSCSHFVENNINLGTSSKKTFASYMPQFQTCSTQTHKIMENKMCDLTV
Briefly: 125I-labeled mouse leptin pre-incubated with human CRP, binding to HEK293 cells stably transfected with human OB-Rb. As to conditions: in the presence of 2 ng/ml mouse leptin. The method, then:
FIG. 4B. Effects of human CRP on mouse leptin. […] The dashed line at the bottom right of the graph indicates ^125I-leptin bound when two thousand fold excess of non-labeled mouse leptin is added.
To examine if CRP binding interferes with the stability of human leptin to bind to its receptors, a HEK293 cell line stably transfected with the long-form human leptin receptor, OB—Rb, was used (17). Human leptin was iodinated with Na^125I using the lodogen method. Briefly, 15 μg of recombinant human leptin in 100 mM Phosphate buffer pH 7.5 were incubated with 1 mCi of carrier-free Na^125I (2200 Ci/mmol) in a glass tube containing 50 μg Iodogen. After 10-minute incubation at room temperature, the reaction was stopped with 100 μl 0.1% trifluoroacetic acid (TFA). The reaction mixture was immediately purified by reverse-phase HPLC. The separation employed a 5-minute isocratic step at 20% eluant B in A, followed by two consecutive 30 min linear gradients from 20 to 50%, then from 50 to 60% eluant B in A (where eluant A is water containing 0.1% TFA and eluant B is acetonitrile containing 0.1% TFA) at a flow rate of 1.5 ml/min. The ^125I-labeled leptin (˜2 ng/ml) was pre-incubated with various concentrations of human CRP in 1 ml of μ-MEM for 1 hour before added to the OBR-expressing HEK293 cells. […]

“human CRP: human C-reactive protein, purified preparation from a commercial source”: the “IC50 of human CRP for reducing 125I-labeled mouse leptin binding to receptor” value is “greater than 64 μg/ml”.

Source of the values: patent US20070218504A1, “HUMAN LEPTIN-DERIVED POLYPEPTIDES AND USES THEREOF” (UNIVERSITY OF PITTSBURGH, priority 2006, published 2007).
